Source: PMC13408441, “Molecular regulation and physiological role of GOLPH3-mediated Golgi retention” (Nature Communications, 2026)

How the values were obtained:
[1] = SEC-MALS of GOLPH3 constructs; format: physicochemical, human; settings: 12 mg/mL, 250 mM NaCl, 50 mM Tris pH 8.0, 1 mM TCEP
Description: (§1) Supplemental Material for Theodoropoulou, Nasrallah, et al 2026 buffer. Pooled fractions were concentrated to the required concentration using a MWCO concentrator (Millipore) with a cutoff of 10 kDa.
(§2) Size exclusion chromatography coupled to multi-angle light scattering
(§3) The molecular weights of the tested constructs were determined by size exclusion chromatography coupled to multi-angle light scattering (SEC-MALS). The mass measurements were performed on a UltiMate3000 HPLC system equipped with a 3 angles miniDAWN TREOS static light scattering detector (Wyatt Technology). The sample volumes of 5−10 μl at a concentration of 12 mg/mL, were applied to a Superdex 200 5/150 GL column (Cytiva) previously equilibrated with 250 mM NaCl, 50 mM Tris pH 8.0, 1 mM TCEP at a flow rate of 0.08 mL/min. The data were analyzed using the ASTRA 6.1 software package (Wyatt technology), using the absorbance at 280 nm and the theoretical extinction coefficient for concentration measurements.
(§4) Nuclear Magnetic Resonance (NMR) Spectroscopy
All proteins used for NMR experiments were designed on the GOLPH3-4G background due to its higher stability and solubility. Recombinant proteins were prepared with the isotope enrichment scheme appropriate for each experiment (i.e. 15N-only or 15N, 13C) in 20 mM MES buffer pH 6.5 with 250 mM NaCl and 10% 2H2O. Lower salt, even by 10%, yielded much degraded spectra. […]

GOLPH3-4G = biological target: T1, GOLPH3-4G (Homo sapiens, UniProt Q9H4A6, F194G/F197G/L195G/L196G); test: NMR 1H-15N HSQC titration of LCS tail peptide into 15N-labeled GOLPH3-4G; format: binding; settings: final LCS titration point, MES pH 6.5, 250 mM NaCl, 308K
T1 construct: 10xHistidine tag (N, cleaved yes); Twin-Strep-tag (N, cleaved yes); made in house; host or cells: E. coli BL21(DE3)
Description: as §1, §2, §3, §4
All proteins used for NMR experiments were designed on the GOLPH3-4G background due […]
Recombinant proteins were prepared with the isotope enrichment scheme appropriate for each experiment (i.e. 15N-only or 15N, 13C) in 20 mM MES […]
buffer pH 6.5 with 250 mM NaCl and 10% 2H2O.
Protein concentrations were around 300 µM for all NMR experiments, […]
spectrometer equipped with a CPTC 1H, 13C, 15N 5 mm cryoprobe and an Avance Neo console.
CA, and C) and CB resonances were assigned using a standard procedure based on conventional 3D HNCA, HN(CO)CA, HNCO, HN(CA)CO, CBCA(CO)NH and HNCACB spectra. All spectra were acquired and processed using Bruker’s Topspin 4.0 software.
Backbone assignments were obtained through manual spectral analysis assisted by the […]
spectra acquired on single-point mutants. […]
residues are provided in Table S1 and deposited in the BMRB under ID 53516.

[2] = CD secondary structure of GOLPH3 proteins (BestSel fits); format: physicochemical, human; settings: 10 μM, 100 mM NaCl, 50 mM Tris pH 7.4, 1 mM TCEP, 20 °C
Description: (§5) Supplemental Material for Theodoropoulou, Nasrallah, et al 2026
Isothermal titration calorimetry […]
(§6) Circular Dichroism Spectroscopy
(§7) Circular Dichroism Spectra of GOLPH3 proteins (at 10 μM in 100 mM NaCl, 50 mM Tris pH 7.4 and 1 mM TCEP) were collected with a Chirascan V100 (AppliedPhotophysics), using a 1 mm path length cuvette, at 20 °C, in the 200-260 nm range. Thermal denaturation experiments […]
(§8) every 1 °C, with a temperature ramp speed of 1 °C/min and an equilibration time of […]
(§9) Table S2: Fits of CD spectra to fractions of secondary structure for Golph3 WT and various mutants of it, carried out with the BestSel server

[3] = CD thermal denaturation of GOLPH3 proteins; format: physicochemical, human; settings: CD at 207 nm, 20 to 95 °C at 1 °C/min, 10 μM protein, 100 mM NaCl, 50 mM Tris pH 7.4, 1 mM TCEP
Description: as §5
Isothermal titration calorimetry
Isothermal titration calorimetry (ITC) experiments were performed on a MicroCal PEAQ-ITC (Malvern Panalytical), with GOLPH3 variants being in a buffer containing 250 mM NaCl, 50 mM Tris pH 8.0 and 1 mM TCEP. LCS peptides were synthesised and delivered as lyophilised powder (Genscript). The peptides were dissolved in the protein buffer and their concentrations were calculated based upon their absorbance at 280 nm and their corresponding molar extinction coefficient. Experiments consisted of titrations of a single 0.4 µL injection followed […]
GOLPH3 proteins at a 100 μM concentration. Experiments were performed at 25 °C in triplicate (n = 3), with injection duration of 4 s, injection spacing of 150 s, stir speed of 750 rpm, and reference power of 7 μcal/s. Data were processed and plotted using MicroCal PEAQ‐ITC Analysis Software and fitted to a one‐site binding model.
as §6, §7, §8, §9

chemical shift perturbation, A245 (GOLPH3-4G): 0.023 p.p.m
chemical shift perturbation, A294 (GOLPH3-4G): 0.02332 p.p.m
chemical shift perturbation, D247 (GOLPH3-4G): 0.05478 p.p.m
chemical shift perturbation, D258 (GOLPH3-4G): 0.09666 p.p.m
chemical shift perturbation, E259 (GOLPH3-4G): 0.06997 p.p.m
chemical shift perturbation, H202 (GOLPH3-4G): 0 p.p.m
chemical shift perturbation, K266 (GOLPH3-4G): 0.1082 p.p.m
chemical shift perturbation, K298 (GOLPH3-4G): 0.09652 p.p.m
chemical shift perturbation, Q260 (GOLPH3-4G): 0.1208 p.p.m
chemical shift perturbation, S246 (GOLPH3-4G): 0.08006 p.p.m
chemical shift perturbation, T200 (GOLPH3-4G): 0 p.p.m
chemical shift perturbation, T201 (GOLPH3-4G): 0 p.p.m
chemical shift perturbation, T265 (GOLPH3-4G): 0.1157 p.p.m
chemical shift perturbation, T297 (GOLPH3-4G): 0.1247 p.p.m
chemical shift perturbation, Y261 (GOLPH3-4G): 0.1039 p.p.m
B1: GOLPH3-4G: mutant F194G/L195G/L196G/F197G with improved solubility (protein)
chain: MTSLTQRSSGLVQRRTEASRNAADKERAAGGGAGSSEDDAQSRRDEQDDDDKGDSKETRLTLMEEVLLLGLKDREGYTSFWNDCISSGLRGCMLIELALRGRLQLEACGMRRKSLLTRKVICKSDAPTGDVLLDEALKHVKETQPPETVQNWIELLSGETWNPLKLHYQLRNVRERLAKNLVEKGVLTTEKQNGGGGDMTTHPLTNNNIKQRLIKKVQEAVLDKWVNDPHRMDRRLLALIYLAHASDVLENAFAPLLDEQYDLATKRVRQLLDLDPEVECLKANTNEVLWAVVAAFTK
oligomeric state [1]: monomeric
% alpha [2]: 36%
% beta parallel [2]: 0%
% beta-antiparallel [2]: 13%
% others [2]: 36%
% turn [2]: 15%
Tm / melting temperature [3]: 55 °C
